Assay results from US20160340659A1, “ACTIN BINDING PEPTIDES AND COMPOSITIONS COMPRISING SAME FOR INHIBITING ANGIOGENESIS AND TREATING MEDICAL CONDITIONS ASSOCIATED WITH SAME” (YISSUM RESEARCH AND DEVELOPMENT COMPANY OF THE HEBREW …, priority 2014, published 2016).
Entries after “also recorded” stand apart in the source; their conditions may differ.

B1: SEQ ID NO: 84: truncated RNASET2 polypeptide representing amino acids 49-232 of full length, native RNASET2 (protein)
chain: EGCNRSWPFNLEEIKDLLPEMRAYWPDVIHSFPNRSRFWKHEWEKHGTCAAQVDALNSQKKYFGRSLELYRELDLNSVLLKLGIKPSINYYQVADFKDALARVYGVIPKIQCLPPSQDEEVQTIGQIELCLTKQDQQLQNCTEPGEQPSPKQEVWLANGAAESRGLRVCEDGPVFYPPPKKTKH
B2: SEQ ID NO: 129: truncated version of hRNASET2 (trT2-49) missing amino acids E120-V141, expressed in E. coli (protein)
chain: EGCNRSWPFNLEEIKDLLPEMRAYWPDVIHSFPNRSRFWKHEWEKHGTCAAQVDALNSQKKYFGRSLELYRADFKDALARVYGVIPKIQCLPPSQDEEVQTIGQIELCLTKQDQQLQNCTEPGEQPSPKQEVWLANGAAESRGLRVCEDGPVFYPPPKKTKH

How the values were obtained:
[1] = biological target: T1, actin (Oryctolagus cuniculus, UniProt P68135); assay: Surface plasmon resonance (BIAcore) of actin binding; settings: actin on CM5 chip, 25° C.
Method: SPR was performed on a BIAcore 3000 instrument (BIAcore, Uppsala, Sweden). Actin was diluted in 100 mM CH3COONa pH 4.6 to a final concentration of 20 μg/ml (200 μl total) resulting in ˜1 ng immobilized actin on a CM5 BIAcore sensor chip (GE Healthcare Bio-Sciences AB) using the standard BIAcore amine coupling chemistry protocol. The CM5 chip allows four separate flow cells to be operated in the BIAcore 3000 instrument used in these experiments. Coupling is achieved by activating the surface of the sensor chips with equal volumes of 50 mM N-hydroxysuccimide (NHS)/200 mM Nethyl-N-(3-[…])-carboiimide (EDC) (BIAcore, AB, Uppsala, Sweden) to form activated carboxyl groups. An actin solution (15 μg/ml) was run over the chip for 5 min at a rate of 10 μl/min, allowing the amine groups on the protein to react with the activated esters. In the final stage of immobilization, the surface was blocked by 1M ethanol amine, pH 8.0. […] The association phase for protein or peptides binding to actin was followed for 4 min, and dissociation phases were monitored for 3 min. […] The response was monitored as a function of time (sensorgram) at 25° C. […]

[2] = biological target: T1, actin; assay: Actin binding solid phase assay; settings: immobilized actin; 0-500 ng/100 μl well
Method: 96-well plates (MaxiSorp® flat-bottom 96-well plate, Fisher Scientific Inc., Fair Lawn, N.J.) were coated with 500 ng actin in 100 μl carbonate-bicarbonate buffer (pH 9.5) for 1 h at 37° C. The plate was washed once with TBS and then blocked with 3% BSA in 200 μl TBS buffer at 37° C., for 1 h. Wells were then washed once with 250 μl TBS. trT2-49, trT2-49m or each of the 29 peptides were added at 1:2 dilutions in 100 μl TBS, starting from 500 ng/well, incubated for 1 h at 37° C. and then washed three times with TBS containing 0.1% Tween-20 (TBST). Each well was then treated with 100 μl rabbit anti-trT2-49 diluted 1:500 in TBS and incubated for 1 h at 37° C. The wells were washed three times with TBST and then incubated with 100 μl goat anti-rabbit IgG-HRP (Jackson ImmunoResearch, West Grove, Pa.) diluted 1:10,000 in TBS, for 1 h at 37° C. Wells were then washed twice with TBST, and once with TBS before 100 μl substrate (1-step Ultra TMB-ELISA, Pierce, Fisher Scientific Inc.) were added. Absorbance at 655 nm was measured 10 min thereafter using a Power Wave 200 Microplate Scanning Spectrophotometer (Bio-Tek Instrument, Winooski, Vt.). Affinity was evaluated by double reciprocal plotting.

[3] = test system: chick Chorio-Allantoic Membrane (CAM); assay: Ex ovo CAM angiogenesis assay; assay type: in vivo, chicken; settings: 3 μg on paper disk daily for four days from day 8; compared to PBS control
Method: In this assay, in-vivo angiogenesis is assessed on live chick embryos grown in petri dishes. Fertilized eggs are cracked into a petri dish after a few (e.g. 3) days incubation at appropriate temperature (e.g. 37° C.) and humidity. In the following days, the embryos developed a vascular network, which can then easily be exposed to any treatment or combination of treatments, for example, via delivery onto absorbent disks placed on/about the developing vascular regions. Angiogenesis is scored by periodically (e.g. 1×/day, 2×/day, 1×/2 days, 1×/4 days, etc) counting the number of blood vessels around the disk.
Fertilized chicken eggs were incubated horizontally at 37° C. and humidity of 60-62% and cracked into Petri dishes at embryonic day 4. Incubation was continued under the same conditions. […] Treatment was given every day for four days, then, the number of blood vessels around the treated disks was counted.

[4] = biological target: T2, G-Actin from rabbit muscle (Oryctolagus cuniculus, UniProt P68135); assay: ELISA actin binding assay (solid-phase, immobilized actin); settings: immobilized G-actin 500 ng/well
T2 construct: G-Actin from rabbit muscle; purchased Sigma-Aldrich, St Louis, Mo; host or cells: rabbit muscle (tissue-derived)
Method: Peptides corresponding to a variety of amino acid sequences in the region of human RNASET2 comprising helix 5 and helix 6 were synthesized and assayed for actin binding in an ELISA actin binding assay.
Solid-phase ELISA for RNASET2 peptide binding to immobilized actin was performed as modified from Mejean 1987 (Biochem. J. 244: 571-577) and Mejean 1992 (Eur. J Biochem. 209: 555-562). All steps were conducted at 37° C. Immuno-96 Microwell™ solid plates (Thermo Fisher Scientific, MA) coated with 500 ng/well of G-Actin from rabbit muscle (Sigma-Aldrich, St Louis, Mo.) in 100 ul of 0.05 M carbonate buffer, pH 9.5 (Sigma-Aldrich, Mo), incubated for 1 h and washed with 250 ul/well Tris Buffered Saline (TBS) (Sigma-Aldrich). The wells were blocked with 3% bovine serum albumin (BSA, Sigma-Aldrich) in 200 ul/well TBS for another 1 hour and washed with 250 ul/well TBS. […] After an additional wash with 250 ul/well TBS, 1-Step Ultra TMB-ELISA (TMB-3,3′,5,5′ Tetramethylbenzidine) (Thermo-Scientific) was added (100 ul/well) and after 15-25 min of incubation, the reaction was read at A650 using Infinite F50-TECAN ELISA READER (TECAN, Austria). […]

[5] = test system: HUVEC; assay: HUVEC tube formation assay on Matrigel; assay type: cell-based, human; settings: peptides at 2 μM, compared to Control
Method: FIGS. 6A-6D illustrate in-vitro inhibition of angiogenesis in the HUVEC model by T2 peptides. HUVEC cells plated on Matrigel™ were exposed to 2 μM of T2 peptides A103-Q159 (SEQ ID NO: 60), K108-K133 (SEQ ID NO: 57) or K108-L123 (SEQ ID NO: 67), in addition to 1 μg/ml of angiogenin or VEGF as the angiogenic agent, as indicated. Control wells received PBS. FIG. 6B-Results were assessed by imaging software, and quantified, and expressed relative to tube formation with angiogenin or VEGF alone (100%) Column 1=angiogenin, column 2=angiogenin+SEQ ID NO: 60, column 3=angiogenin+SEQ ID NO: 57, column 4=angiogenin+SEQ ID NO: 60, Column 5=VEGF, column 6=VEGF+SEQ ID NO: 60, column 7=VEGF+SEQ ID NO: 57, column 8=VEGF+SEQ ID NO: 60. FIGS. 6C and 6D illustrate the inhibitory effect of truncated human T2 polypeptide trT2-49m (SEQ ID NO: 129) on angiogenin and VEGF induced HUVEC tube formation. […]
HUVEC (CC-2519)(fresh or commercially provided) are maintained in M199 rrrediurn supplemented with 20% FCS, 1% glutamine, 1% antibiotic-antimycotic solution, ECGF, and heparin, plated in a 96-well plate (14×10^3 cells/well) previously coated with growth factor-depleted Matrigel™ (BD Biosciences), in M199 medium containing 5% FCS and 0.005% ECGF. […] Plates are incubated (overnight), photographed and the extent of tube formation (angiogenesis) assessed.

Row | Molecule | Ka × 10^3 [1] | actin binding in solid-phase assay [2] | inhibition of angiogenesis (number of blood vessels around disk) [3] | actin binding on ELISA [4] | inhibition of VEGF-induced tube formation ([5]; 1 μg/ml VEGF) [%] | inhibition of angiogenin-induced tube formation ([5]; 1 μg/ml angiogenin) [%]
1 | B1 | 1.71 ×10^3 1/Ms | effective and concentration-dependent binding of actin | effective in inhibiting angiogenesis | effectively binds actin |  | 
2 | B2 | 0.50 ×10^3 1/Ms | bound actin in a concentration-dependent manner; also recorded: effective and concentration-dependent binding of actin |  |  | 35 | 40
